Measurements reported in PMC8262878, “GP96 Drives Exacerbation of Secondary Bacterial Pneumonia following Influenza A Virus Infection” (mBio, 2021).

Target: T1, recombinant glycoprotein 96 (GP96) (human, UniProt P14625 22-803)
T1 construct: The purification of GP96 and the fate of the GST tag are not described; also called GRP94; Grp94; source: E. coli BL21(DE3), pGEX-6P-1 vector; recombinant protein
Assay: SPR; BIAcore X-100; GP96 amine-coupled to a CM5 chip; AliA or AliB as analyte at 31.3-500 nM; HBS-P buffer (0.01 M HEPES pH 7.4, 0.15 M NaCl, 0.005% surfactant P20), 37°C, 30 ul/min; 1:1 Langmuir binding model
Conditions: both partners purified

T1 sequence (P14625 22-803): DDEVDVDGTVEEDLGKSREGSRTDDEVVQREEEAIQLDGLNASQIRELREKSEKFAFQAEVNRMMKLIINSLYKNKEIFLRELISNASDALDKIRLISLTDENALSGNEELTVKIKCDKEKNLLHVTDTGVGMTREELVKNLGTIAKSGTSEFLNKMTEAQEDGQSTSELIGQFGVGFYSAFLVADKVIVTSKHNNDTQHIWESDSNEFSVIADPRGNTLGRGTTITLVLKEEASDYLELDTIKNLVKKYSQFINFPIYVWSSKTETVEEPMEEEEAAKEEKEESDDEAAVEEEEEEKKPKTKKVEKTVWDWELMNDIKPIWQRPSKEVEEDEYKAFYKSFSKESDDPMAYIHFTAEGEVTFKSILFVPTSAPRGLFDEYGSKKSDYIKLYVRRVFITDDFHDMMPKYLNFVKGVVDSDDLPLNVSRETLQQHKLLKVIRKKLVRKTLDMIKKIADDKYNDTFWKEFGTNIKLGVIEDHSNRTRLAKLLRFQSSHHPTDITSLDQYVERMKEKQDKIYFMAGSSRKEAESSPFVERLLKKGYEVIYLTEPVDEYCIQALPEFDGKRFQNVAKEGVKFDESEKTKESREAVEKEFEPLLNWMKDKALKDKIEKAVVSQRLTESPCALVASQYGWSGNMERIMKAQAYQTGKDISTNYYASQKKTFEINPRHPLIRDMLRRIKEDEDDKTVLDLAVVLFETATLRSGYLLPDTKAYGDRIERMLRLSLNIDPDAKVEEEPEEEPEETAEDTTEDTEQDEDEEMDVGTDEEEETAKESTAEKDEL

| Binder | Kd | koff | kon |
| --- | --- | --- | --- |
| recombinant AliB (natural protein, also called Ali protein; source: E. coli XL10-Gold, pQE30 vector, purified (QIAexpress protein purification system)) CGNSSTASKTYNYVYSSDPSSLNYLAENRAATSDIVANLVDGLLENDQYGNIIPSLAEDWTVSQDGLTYTYKLRKDAKWFTSEGEEYAPVTAQDFVTGLQYAADKKSEALYLVQDSVAGLDDYITGKTSDFSTVGVKALDDQTVQYTLVKPELYWNSKTLATILFPVNADFLKSKGDDFGKADPSSILYNGPFLMKALVSKSAIEYKKNPNYWDAKNVFVDDVKLTYYDGSDQESLERNFTAGAYTTARLFPNSSSYEGIKEKYKNNIIYSMQNSTSYFFNFNLDRKSYNYTSKTSDIEKKSTQEAVLNKNFRQAINFAFDRTSYGAQSEGKEGATKILRNLVVPPNFVSIKGKDFGEVVASKMVNYGKEWQGINFADGQDPYYNPEKAKAKFAEAKKELEAKGVQFPIHLDKTVEVTDKVGIQGVSSIKQSIESVLGSDNVVIDIQQLTSDEFDSSGYFAQTAAQKDYDLYHGGWGPDYQDPSTYLDIFNTNSGGFLQNLGLEPGEANDKAKAVGLDVYTQMLEEANKEQDPAKRYEKYADIQAWLIDSSLVLPSVSRGGTPSLRRTVPFAAAYGLTGTKGVESYKYLKVQDKIVTTDEYAKAREKWLKEKEESNKKAQEELAKHVK | 48.5 nM | 10.1 s⁻¹ | 2.09e+08 M⁻¹ s⁻¹ |
| recombinant AliA (natural protein, also called Ali protein; source: E. coli XL10-Gold, pQE30 vector, purified (QIAexpress protein purification system)) CSGSGSSTKGEKTFSYIYETDPDNLNYLTTAKAATANITSNVVDGLLENDRYGNFVPSMAEDWSVSKDGLTYTYTIRKDAKWYTSEGEEYAAVKAQDFVTGLKYAADKKSDALYLVQESIKGLDAYVKGEIKDFSQVGIKALDEQTVQYTLNKPESFWNSKTTMGVLAPVNEEFLNSKGDDFAKATDPSSLLYNGPYLLKSIVTKSSVEFAKNPNYWDKDNVHVDKVKLSFWDGQDTSKPAENFKDGSLTAARLYPTSASFAELEKSMKDNIVYTQQDSITYLVGTNIDRQSYKYTSKTSDEQKASTKKALLNKDFRQAIAFGFDRTAYASQLNGQTGASKILRNLFVPPTFVQADGKNFGDMVKEKLVTYGDEWKDVNLADSQDGLYNPEKAKAEFAKAKSALQAEGVQFPIHLDMPVDQTATTKVQRVQSMKQSLEATLGADNVIIDIQQLQKDEVNNITYFAENAAGEDWDLSDNVGWGPDFADPSTYLDIIKPSVGESTKTYLGFDSGEDNVAAKKVGLYDYEKLVTEAGDETTDVAKRYDKYAAAQAWLTDSALIIPTTSRTGRPILSKMVPFTIPFALSGNKGTSEPVLYKYLELQDKAVTVDEYQKAQEKWMKEKEESNKKAQEDLAKHVK | 34 nM | 0.000785 s⁻¹ | 23100 M⁻¹ s⁻¹ |
